Laboratory results from patent publication US20080279856A1, “Inhibition of Bradykinin Release” (Novo Nordisk Pharmaceuticals, Inc., priority 1999, published 2008).

Tests used:
[1] = tested on: EC monolayers (HUVEC or BAEC); experiment: Albumin clearance (Evans blue dye-conjugated albumin) across EC monolayers after HBP stimulation; format: cell-based, human, bovine; conditions: HBP 75 μg/ml; over a 60 min period
Description: Human umbilical vein endothelial cells (HUVEC) are isolated from fresh umbilical cords as described by Jaffe et al., 1973, J. Clin. Invest. 52:2745-2756), and bovine aorta endothelial cells (BAEC) are isolated according to the method of Booyse et al., 1975, Thromb. Diath. Haemmorrh. 24:825-839) with a few modifications. Briefly, the lumen of the umbilical vein or bovine aorta is incubated with a 0.25% collagenase solution for 10 min, and detached endothelial cells washed out with PBS. Harvested cells are pelleted and resuspended in culture medium, seeded in tissue culture flasks and incubated under standard conditions. Medium is changed every 48 h until cultures have reached confluence (3-5 days). […]
Cultured EC are detached by brief (2 min) trypsin-EDTA treatment (0.25% trypsin/0.01% EDTA) and replated onto either 0.2 μm pore size Anopore inorganic membrane or 3.0 μm pore size polycarbonate filters (Tissue Culture inserts, 10 mm; NUNC, Roskilde, Denmark). […] The ECs are grown to confluent monolayers, as assessed by daily microscopic observation and measurement of the electrical resistance across the monolayer.
Evans blue dye-conjugated albumin (EBA) is used as a marker for macromolecular permeability of the EC monolayers. […] In experiments where albumin permeability is analyzed, the culture medium in the upper compartment is exchanged for medium containing EBA. […]

[2] = tested on: HUVEC or BAEC monolayers; experiment: EC intracellular free Ca2+ (fluo-3/AM, confocal microscopy); format: cell-based, human, bovine; conditions: HBP 75 μg/ml
Description: The Ca^2+ sensitive fluorescent probe fluo-3/AM is used for determination of changes in EC intracellular free Ca^2+. Confluent HUVEC or BAEC monolayers cultured on Biomatrix I coated filters are incubated with a Fluo-3/AM solution (3 μM in HBSS containing 2% FCS and […] HEPES), added to both the apical and basolateral surface, for 30 min at 37° C. The monolayers are washed three times and incubated with fresh HBSS in the dark for 20 min at room temperature before use to allow complete hydrolysis of the dye ester to its calcium sensitive free acid form. EC are stimulated with HBP added to the apical surface. Changes in EC Ca^2+i in response to HBP stimulation are measured through continuous registration of fluorescence intensity with a laser-scanning confocal imaging system (Insight Plus; Meridian Instruments Inc., Okemon, Mich.).

[3] = tested on: fecal peritonitis; conditions: HBP treatment; cited from earlier work

B1: HBP: Native human heparin-binding protein, mature form with the amino acid sequence SEQ ID NO:1 (protein, listed as Homo sapiens)
chain: IVGGRKARPRQFPFLASIQNQGRHFCGGALIHARFVMTAASCFQSQNPGVSTVVLGAYDLRRRERQSRQTFSISSMSENGYDPQQNLNDLMLLQLDREANLTSSVTILPLPLQNATVEAGTRCQVAGWGSQRSGGRLSRFPRFVNVTVTPEDQCRPNNVCTGVLTRRGGICNGDGGTPLVCEGLAHGVASFSLGPCGRGPDFFTRVALFRDWIDGVLNNPGPGPA
In the case of B1, the “net albumin clearance volume” value [1] is reported as 20.4 ± 3.4 µL, the “change in EC cytosolic Ca2+ (fluo-3 fluorescence intensity)” value [2] is reported as “rapid increase in fluorescence intensity” and the “time to peak of Ca2+ fluorescence” value [2] is reported as ≤ 1 min. The survival [3] was “rescue mice from an otherwise lethal injury”.
